From article PMC10247153
Each block holds one substance with its values, some of them ahead of it.

How the values were obtained:
[1] = tested on: KDM5C1-839 D343A (Homo sapiens); assay: EMSA; conditions: apparent Kd, EMSA: 50 mM HEPES pH 7.5, 50 mM KCl, 1 mM BME, 0.01% Tween-20, 0.01% BSA, 5% sucrose, 1 h on ice, 100 nM nucleosome or 147 bp DNA, gel at 4 C.
[2] = tested on: KDM5C1-839 A388P (Homo sapiens); assay: EMSA; conditions: apparent Kd, EMSA: 50 mM HEPES pH 7.5, 50 mM KCl, 1 mM BME, 0.01% Tween-20, 0.01% BSA, 5% sucrose, 1 h on ice, 100 nM nucleosome or 147 bp DNA, gel at 4 C.
[3] = tested on: KDM5C1-839 D87G (Homo sapiens); assay: EMSA; conditions: apparent Kd, EMSA: 50 mM HEPES pH 7.5, 50 mM KCl, 1 mM BME, 0.01% Tween-20, 0.01% BSA, 5% sucrose, 1 h on ice, 100 nM nucleosome or 147 bp DNA, gel at 4 C.
[4] = tested on: KDM5C1-839 (Homo sapiens); assay: EMSA; conditions: EMSA: 50 mM HEPES pH 7.5, 50 mM KCl, 1 mM BME, 0.01% Tween-20, 0.01% BSA, 5% sucrose, 1 h on ice, 100 nM nucleosome or 147 bp DNA, 500 nM 20 bp DNA, gel at 4 C.; for Kd: apparent Kd
[5] = tested on: KDM5C1-839 ΔAP (Homo sapiens); assay: EMSA; conditions: apparent Kd, EMSA: 50 mM HEPES pH 7.5, 50 mM KCl, 1 mM BME, 0.01% Tween-20, 0.01% BSA, 5% sucrose, 1 h on ice, 100 nM nucleosome or 147 bp DNA, 500 nM 20 bp DNA, gel at 4 C.
[6] = tested on: KDM5C ARID K101A/R107A (Homo sapiens); assay: EMSA; conditions: EMSA: 50 mM HEPES pH 7.5, 50 mM KCl, 1 mM BME, 0.01% Tween-20, 0.01% BSA, 5% sucrose, 1 h on ice; 100 nM nucleosome or 147 bp DNA, 500 nM 20 bp DNA; gel at 4 C.; scale: fold reduction
[7] = molecular target: H3K4me3 187 bp mononucleosome (human) (UniProt P68431); assay: native gel or EMSA; 100 nM nucleosome with various concentrations of KDM5C; 50 mM HEPES pH 7.5, 50 mM KCl, 1 mM BME, 0.01% Tween-20, 0.01% BSA, 5% sucrose; 1 hr on ice; native 7.5% PAGE at 4 °C; apparent dissociation constants from a cooperative binding fit
[8] = molecular target: unmodified 147 bp mononucleosome (human) (UniProt P68431); assay: as above
[9] = molecular target: H3K4me3 147 bp mononucleosome (human) (UniProt P68431); assay: as above
[10] = molecular target: unmodified 187 bp mononucleosome (human) (UniProt P68431); assay: as above
[11] = tested on: KDM5C1-839 ΔAP A388P (Homo sapiens); assay: EMSA; conditions: apparent Kd; lower limit, saturation unattainable; EMSA: 50 mM HEPES pH 7.5, 50 mM KCl, 1 mM BME, 0.01% Tween-20, 0.01% BSA, 5% sucrose, 1 h on ice; 100 nM nucleosome or 147 bp DNA, 500 nM 20 bp DNA; gel at 4 C.
[12] = molecular target: H3K4me3 187 bp mononucleosome (human) (UniProt P68431)
[13] = molecular target: H3K4me3 147 bp mononucleosome (human) (UniProt P68431)
[14] = histone H3K4me3, 500 nM 20 bp DNA
[15] = lower limit, saturation unattainable

Chain of KDM5C^1–839 (P41229 1-839): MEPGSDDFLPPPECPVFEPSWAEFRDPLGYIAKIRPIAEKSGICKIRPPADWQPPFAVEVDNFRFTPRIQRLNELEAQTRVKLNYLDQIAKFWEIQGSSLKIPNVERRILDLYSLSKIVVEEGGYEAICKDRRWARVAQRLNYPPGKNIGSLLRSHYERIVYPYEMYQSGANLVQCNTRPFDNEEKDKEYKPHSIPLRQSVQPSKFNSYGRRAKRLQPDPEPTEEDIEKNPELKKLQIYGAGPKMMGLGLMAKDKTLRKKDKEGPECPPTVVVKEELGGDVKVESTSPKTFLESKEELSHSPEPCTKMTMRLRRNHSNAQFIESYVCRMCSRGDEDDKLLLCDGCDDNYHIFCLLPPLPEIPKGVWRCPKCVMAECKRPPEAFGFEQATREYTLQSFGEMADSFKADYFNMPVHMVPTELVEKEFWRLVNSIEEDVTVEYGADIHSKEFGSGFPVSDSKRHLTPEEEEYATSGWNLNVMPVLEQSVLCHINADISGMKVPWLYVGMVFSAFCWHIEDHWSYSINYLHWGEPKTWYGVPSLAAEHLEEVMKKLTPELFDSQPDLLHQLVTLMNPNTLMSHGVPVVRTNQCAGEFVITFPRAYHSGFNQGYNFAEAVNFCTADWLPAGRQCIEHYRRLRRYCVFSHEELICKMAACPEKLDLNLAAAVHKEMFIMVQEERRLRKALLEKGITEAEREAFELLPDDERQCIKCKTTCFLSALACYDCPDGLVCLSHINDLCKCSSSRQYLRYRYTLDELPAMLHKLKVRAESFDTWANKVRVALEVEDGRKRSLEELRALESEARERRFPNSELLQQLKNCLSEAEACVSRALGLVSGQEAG

- Kd [7]: 7 µM
- Kd [8]: 13 µM
- Kd [9]: 7 µM
- fold gain in affinity against the core (147 bp) nucleosome [10]: 3 fold
Substance: KDM5C^1–839 (from UniProt P41229-1 1-839) (domain or fragment)

- fold gain in affinity against the H3K4me3 core nucleosome [7]: 2 fold
- Kd [10]: 1 µM
Substance: KDM5C^1–839 A388P (from UniProt P41229-1 1-839) (domain or fragment)

- catalytic efficiency kmax/Km^app of demethylation of the 187 bp H3K4me3 nucleosome (TR-FRET, single turnover), against wild type KDM5C^1–839 [12]: 2 fold
- catalytic efficiency kmax/Km^app of demethylation of the H3K4me3 core nucleosome (TR-FRET, single turnover), increase against wild type KDM5C^1–839 [13]: 3 fold
- fold gain in affinity against the H3K4me3 core nucleosome [7]: 2 fold
- Kd [10]: 1 µM
Substance: KDM5C^1–839 D87G (from UniProt P41229-1 1-839) (domain or fragment)

- Kd [7]: 4.7 µM
- Kd [8]: 8.4 µM
- Kd [9]: 8.9 µM
- Kd [10]: 3.2 µM
Substance: KDM5C^1–839 D343A (from UniProt P41229-1 1-839) (domain or fragment)

- fold reduction in affinity against KDM5C^1–839 [8]: 3 fold
- fold reduction in affinity against KDM5C^1–839 [9]: 3 fold
Substance: KDM5C^(1–839 ΔAP) (from UniProt P41229-1 1-82; P41229-1 379-839) (domain or fragment)

More lines, now with the values behind:

Substance: unmodified 187 bp nucleosome
- Kd ([1]; 500 nM 20 bp …): 3.2 µM
- Kd ([2]; 500 nM 20 bp …): 1 µM
- Kd ([3]; 500 nM 20 bp …): 1 µM
- binding signal ([4]; scale: fold gain in affinity vs 147 bp nucleosome): 3

Substance: H3K4me3 147 bp core nucleosome
- Kd [1, 14]: 8.9 µM
- Kd [2, 14]: 3.7 µM
- Kd [3, 14]: 2.3 µM
- Kd ([5]; Hill n 2.4, histone H3K4me3): 20 µM
- Kd ([4]; Hill n 2.3, histone H3K4me3): 6.9 µM

Substance: 147 bp 601 DNA
- binding signal [6]: 22

Substance: unmodified 147 bp core nucleosome
- Kd ([1]; 500 nM 20 bp …): 8.4 µM
- Kd [11]: > 45 µM
- Kd [5, 15]: > 35 µM
- Kd [4, 15]: > 12.5 µM

Substance: H3K4me3 187 bp nucleosome
- Kd [1, 14]: 4.7 µM
- Kd [2, 14]: 1.8 µM
- Kd [3, 14]: 1.3 µM
- Kd ([4]; histone H3K4me3): 7.3 µM
